The values that follow come from paper doi:10.1101/2023.06.21.545551, “Intrinsically disordered regions in the transcription factor MYC:MAX modulate DNA binding via intramolecular interactions”.

Series [1] has as its target T1, MYC(2-439) full-length;MAX(2-160) (human?;human?, UniProt P01106-1;P61244 ;, |). The experiment in a line: SPR; negative control bound only by MYC(352-437):MAX; SPR: 25 mM HEPES pH 8, 150 mM NaCl, 1 mM TCEP, 0.01% Tween-20, 3 mM EDTA, temperature not stated; NMR: 20 mM HEPES pH 7, 100 mM NaCl (E100; or E300), 2 mM TCEP, 5% D2O, 298 K (complexes) or 283 K (disordered fragments). The following applies: protein: recombinant;recombinant; tags: none;N-Strep-TEV, cleavable; copies: 1;1; label: 5'-biotin on strand 1; blunt. On the technique in general: SPR reads the build-up and loss of mass on a sensor chip optically.

Series [2] deals with T2, MYC(151-439);MAX(2-160) of commercial complex (human?;human?, UniProt P01106-1;P61244 ;, |). The series is described as above. The following applies: protein: commercial;commercial; copies: 1;1; label: 5'-biotin on strand 1; blunt.
T2 sequence (P01106 166-454, chain 1 of 2): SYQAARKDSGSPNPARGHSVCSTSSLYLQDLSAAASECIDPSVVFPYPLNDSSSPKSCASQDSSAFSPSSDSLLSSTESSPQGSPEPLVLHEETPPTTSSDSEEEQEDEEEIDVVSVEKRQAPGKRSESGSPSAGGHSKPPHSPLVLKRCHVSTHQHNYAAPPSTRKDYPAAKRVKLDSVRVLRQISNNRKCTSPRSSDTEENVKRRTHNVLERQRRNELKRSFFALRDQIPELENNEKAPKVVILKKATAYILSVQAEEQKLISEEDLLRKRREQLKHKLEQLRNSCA
T2 sequence (P61244 other isoform, or with tags, fused parts or gaps |, chain 2 of 2): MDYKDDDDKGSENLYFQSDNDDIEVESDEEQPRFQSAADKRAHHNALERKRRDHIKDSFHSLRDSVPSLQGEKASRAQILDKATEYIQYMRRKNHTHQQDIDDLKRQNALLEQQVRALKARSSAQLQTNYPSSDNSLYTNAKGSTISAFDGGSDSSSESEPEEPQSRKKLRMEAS
Series [3] has as its target T2, MYC(151-439);MAX(2-160) of commercial …. As to the kind of experiment: SPR; affinity between P3+P6 and full length; SPR: 25 mM HEPES pH 8, 150 mM NaCl, 1 mM TCEP, 0.01% Tween-20, 3 mM EDTA, temperature not stated; NMR: 20 mM HEPES pH 7, 100 mM NaCl (E100; or E300), 2 mM TCEP, 5% D2O, 298 K (complexes) or 283 K (disordered fragments). The following applies: protein: commercial;commercial; copies: 1;1; label: 5'-biotin on strand 1; blunt.

The target in series [4] is T1, MYC(2-439) full-length;MAX(2-160). The experiment in a line: SPR; range over canonical and mutant E-Boxes; SPR: 25 mM HEPES pH 8, 150 mM NaCl, 1 mM TCEP, 0.01% Tween-20, 3 mM EDTA, temperature not stated; NMR: 20 mM HEPES pH 7, 100 mM NaCl (E100; or E300), 2 mM TCEP, 5% D2O, 298 K (complexes) or 283 K (disordered fragments). The following applies: protein: recombinant;recombinant; tags: none;N-Strep-TEV, cleavable; copies: 1;1; label: 5'-biotin on strand 1; blunt.

Series [5] addresses MYC(352-437);MAX(2-160) co-expressed (human?;human?, UniProt P01106-1;P61244 ;, |). As to the kind of experiment: SPR; strongest of the four DNAs; Kd only in figure; SPR: 25 mM HEPES pH 8, 150 mM NaCl, 1 mM TCEP, 0.01% Tween-20, 3 mM EDTA, temperature not stated; NMR: 20 mM HEPES pH 7, 100 mM NaCl (E100; or E300), 2 mM TCEP, 5% D2O, 298 K (complexes) or 283 K (disordered fragments). The following applies: protein: recombinant;recombinant; tags: N-His6 uncleavable;none; copies: 1;1; label: 5'-biotin on strand 1; blunt.

A further series has as its target MYC(256-299) (UniProt P01106-1). The experiment in a line: NMR; SPR: 25 mM HEPES pH 8, 150 mM NaCl, 1 mM TCEP, 0.01% Tween-20, 3 mM EDTA, temperature not stated; NMR: 20 mM HEPES pH 7, 100 mM NaCl (E100; or E300), 2 mM TCEP, 5% D2O, 298 K (complexes) or 283 K (disordered fragments). The following applies: protein: recombinant; tags: His6-ZZ-TEV cleaved; 15N; blunt.

The next series has as its target Mb0 peptide MYC(11-34) (UniProt P01106-1). As to the kind of experiment: NMR; equimolar DNA; SPR: 25 mM HEPES pH 8, 150 mM NaCl, 1 mM TCEP, 0.01% Tween-20, 3 mM EDTA, temperature not stated; NMR: 20 mM HEPES pH 7, 100 mM NaCl (E100; or E300), 2 mM TCEP, 5% D2O, 298 K (complexes) or 283 K (disordered fragments). The following applies: protein: recombinant; tags: His6-MBP-TEV cleaved; 13C-MTC on C25; blunt.

Series [6] has as its target MYC(1-439)_C0,C25;MAX(2-160) (human?;human?, UniProt P01106-1;P61244 ;, C70A;C117A;C133A;C171A;C188A;C208A;C300A;C342A;C438A|). As to the kind of experiment: NMR; 13C-MTC on C25; 10-fold DNA; SPR: 25 mM HEPES pH 8, 150 mM NaCl, 1 mM TCEP, 0.01% Tween-20, 3 mM EDTA, temperature not stated; NMR: 20 mM HEPES pH 7, 100 mM NaCl (E100; or E300), 2 mM TCEP, 5% D2O, 298 K (complexes) or 283 K (disordered fragments). The following applies: protein: recombinant;recombinant; tags: 13C-MTC label on C25;N-Strep-TEV, cleavable; copies: 1;1; blunt.

T1 sequence (P01106 17-454, chain 1 of 2): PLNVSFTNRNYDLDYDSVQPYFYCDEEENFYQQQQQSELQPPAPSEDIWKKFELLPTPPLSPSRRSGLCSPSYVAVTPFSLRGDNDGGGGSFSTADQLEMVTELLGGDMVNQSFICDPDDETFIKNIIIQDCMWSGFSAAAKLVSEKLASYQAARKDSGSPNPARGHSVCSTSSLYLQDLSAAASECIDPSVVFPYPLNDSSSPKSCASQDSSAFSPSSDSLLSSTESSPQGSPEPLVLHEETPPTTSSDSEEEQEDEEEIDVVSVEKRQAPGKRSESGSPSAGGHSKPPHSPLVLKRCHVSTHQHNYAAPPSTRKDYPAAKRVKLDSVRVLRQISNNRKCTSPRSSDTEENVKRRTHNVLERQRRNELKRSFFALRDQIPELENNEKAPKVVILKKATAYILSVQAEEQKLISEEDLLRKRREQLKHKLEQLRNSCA
T1 sequence (P61244 other isoform, or with tags, fused parts or gaps |, chain 2 of 2): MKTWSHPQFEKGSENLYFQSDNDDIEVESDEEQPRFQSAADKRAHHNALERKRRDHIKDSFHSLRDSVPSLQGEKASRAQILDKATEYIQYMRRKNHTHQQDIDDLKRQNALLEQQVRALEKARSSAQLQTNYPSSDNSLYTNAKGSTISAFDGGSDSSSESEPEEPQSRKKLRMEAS
Sequence of MYC(256-299) (P01106 other isoform, or with tags, fused parts or gaps): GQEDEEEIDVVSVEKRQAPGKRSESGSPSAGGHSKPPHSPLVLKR
Sequence of Mb0 peptide MYC(11-34) (P01106 other isoform, or with tags, fused parts or gaps): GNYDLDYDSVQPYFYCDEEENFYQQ
Sequence of MYC(1-439)_C0,C25;MAX(2-160) (P01106 other isoform, or with tags, fused parts or gaps C70A;C117A;C133A;C171A;C188A;C208A;C300A;C342A;C438A|, chain 1 of 2): as the sequence (P01106 17-454, chain 1 of 2) above, with C24A, C69A, C116A, C132A, C170A, C187A, C207A, C299A, C341A, C437A counted along it
Sequence of MYC(352-437);MAX(2-160) co-expressed (P01106 other isoform, or with tags, fused parts or gaps |, chain 1 of 2): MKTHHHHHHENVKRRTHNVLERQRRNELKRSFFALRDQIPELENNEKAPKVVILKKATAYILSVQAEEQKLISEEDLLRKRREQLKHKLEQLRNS
Sequence of MYC(352-437);MAX(2-160) co-expressed (P61244 whole entry, chain 2 of 2, the tested form may be a part): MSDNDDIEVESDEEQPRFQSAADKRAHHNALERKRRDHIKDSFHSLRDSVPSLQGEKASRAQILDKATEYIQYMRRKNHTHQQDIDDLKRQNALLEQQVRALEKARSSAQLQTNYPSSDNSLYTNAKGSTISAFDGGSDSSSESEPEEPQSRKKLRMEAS

B1: Negative control (dsDNA)
DNA 1: CCGGTTTAGCAGCCTA
DNA 2: TAGGCTGCTAAACCGG
For B1, the binding result in series [1] and in series [2] was “no binding” each time.

B2: E-Box (SPR) (dsDNA)
DNA 1: CCGGTCACGTGGCCTA
DNA 2: TAGGCCACGTGACCGG
For B2, the binding result in series [3], in series [4] and in series [5] was “binds” in each case.

B3: E-Box (NMR) (dsDNA)
DNA 1: CCGGTCACGTGGCCTA
DNA 2: TAGGCCACGTGACCGG
With B3, the binding result with MYC(256-299) was “no binding”; with Mb0 peptide MYC(11-34), “no binding”; in series [6], “binds”.
